Experimental findings from patent publication US20110159569A1 (AJOU UNIVERSITY INDUSTRYACADEMIC COOPERATION FOUND, published 2011) are described below.

The data set concerns the molecule itself. The experiment in a line: size exclusion chromatography (HPLC, TSK G3000SW xL), self-association. The method, then:
0.02 ml of 5 to 20 μM protein was injected into a TSK G3000SW xL column (TosoHaas, Japan), and a phosphate buffered solution (50 mM sodium phosphate/150 mM NaCl, pH7.4) flowed at a rate of 0.7 ml/min. In this case, the chromatogram was obtained by measuring absorbance values at 280 nm.

B1: 3D8 VL protein (other)
VL: DLVMSQSPSSLAVSAGEKVTMSCKSSQSLFNSRTRKNYLAWYQQKPGQSPKLLIYWASTRESGVPDRFTGSGSGTDFTLTISSVQAEDLAVYYCKQSYYHMYTFGSGTKLEIK
notes: Isolated light chain variable domain of the anti-nucleic acid antibody 3D8, purified as a single domain and immobilized on a CM5 chip for SPR; also called VL chain; VL domain
In the case of B1, the binding result is recorded as “no binding (tested: 5 to 20 µM)”.

B2: 3D8 VH protein (other)
VH: AREVQLQQSGPELVKPGASVKMSCKASGYTFTSYVMHWVKQKPGQGLEWIGYINPYNDGTKYNEKFKGKATLTSDKSSSTAYMELSSLTSEDSAVYYCARGAYKRGYAMDYWGQGTSVTVSS
notes: Isolated heavy chain variable domain of the anti-nucleic acid antibody 3D8, purified as a single domain; also called VH chain; VH domain
Take B2: the binding result is “no binding (tested: 5 to 20 µM)”.
